Experimental data: the supplement of paper PMC10567573

B1: PLK2 (parent)
chain: MELLRTITYQPAASTKMCEQALGK
B2: DLC1 (parent)
chain: KRSWEEHVTHWMGQPFNSDDRNTA

Variants of: B1
Experiment: protein stability index of a GFP-peptide fusion (GPS, HEK-293T) (PSI 1-6); higher = more stable
Settings: c terminus: a fixed tail appended
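Also: lentivirally expressed fusions sorted by FACS into six bins by GFP to DsRed ratio, PSI derived from sequencing read proportions per bin multiplied by bin number.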

Protein stability index of substitutions, site by site:
C18: I 2.49 | K 1.61 | L 2.71 | M 2.67 | N 1.95 | P 3.07 | Q 1.57 | R 2.85 | S 2.81 | T 2.67 | V 2.26 | W 2.17 | Y 1.01
E19: A 2.59 | C 2.09 | D 2.27 | F 2.15 | G 2.87 | H 2.09 | I 2.42 | K 2.63 | L 2.52 | N 2.28 | P 3.73 | Q 1.52 | R 2.59 | S 1.38 | T 2.84 | V 2.46 | Y 2.82
Q20: A 2.63 | C 3.11 | D 1.95 | E 1.78 | F 2.08 | G 2.7 | H 2.51 | I 2.18 | K 2.22 | L 2.38 | M 3.03 | N 1.69 | P 2.62 | R 2.71 | S 1.75 | T 3.59 | V 1.6 | W 2.02 | Y 2.58
A21: C 2.68 | D 2.17 | E 2.46 | F 1.94 | G 2.42 | H 1.94 | I 3.11 | K 1.51 | L 2.7 | M 2.21 | N 2.22 | P 2.28 | Q 2.98 | R 2.69 | S 2 | T 2.79 | V 2.5 | W 3.26 | Y 2.16
L22: A 2.29 | C 2.54 | D 1.87 | E 2.21 | F 2.92 | G 3.33 | H 3.36 | I 2.42 | K 1.66 | M 1.57 | N 2.31 | P 1.79 | Q 2.02 | R 1.89 | S 1.52 | T 2.43 | V 2.82 | W 2.86 | Y 2.79
G23: A 2.64 | C 2.96 | D 1.93 | E 2.22 | F 2.36 | H 2.88 | I 1.97 | K 2.94 | L 3.53 | M 2.28 | N 2.37 | P 2.27 | Q 1.87 | R 1.34 | S 3.38 | T 1.46 | V 1.97 | W 3.02 | Y 1.9
K24: A 2.89 | C 2.46 | D 2.73 | E 1.41 | F 3.31 | G 1.65 | H 3.08 | I 3.23 | L 3.19 | M 3.29 | N 2.59 | P 2.65 | Q 1.89 | R 1.98 | S 2.47 | T 2.21 | V 2.86 | W 3.92 | Y 3.96

Variants of: B2
Experiment: as above
Settings: c terminus: a fixed tail appended

Protein stability index, by site and new letter:
K1: A 3.57 | C 2.54 | D 4.26 | E 4.15 | F 3.16 | G 3.21 | H 2.69 | I 2.54 | L 3.03 | M 2.73 | N 3.63 | P 3.6 | Q 3.76 | R 2.99 | S 3.46 | T 3.35 | V 2.95 | W 2.49 | Y 2.81
R2: A 3.11 | C 2.52 | D 4.37 | E 3.61 | F 3.62 | G 3.61 | H 3.08 | I 2.71 | K 2.6 | L 3.28 | M 2.79 | N 3.67 | P 3.37 | Q 3.11 | S 3.79 | T 3.7 | V 3.26 | W 2.98 | Y 3.25
S3: A 3.44 | C 2.24 | D 4.33 | E 4.41 | F 3.18 | G 3.44 | H 3.72 | I 3.78 | K 3.47 | L 3.37 | M 3.35 | N 3.81 | P 3.6 | Q 3.54 | R 3.34 | T 2.13 | V 3.94 | W 3 | Y 3.01
W4: A 4.41 | C 4.2 | D 5.21 | E 5.05 | F 4.09 | G 4.38 | H 4.44 | I 4.41 | K 4.48 | L 3.45 | M 3.95 | N 4.95 | P 4.45 | Q 4.71 | R 4.62 | S 4.32 | T 4.76 | V 4.36 | Y 4.08
E5: A 2.55 | C 2.17 | D 3.94 | F 3.16 | G 3.07 | H 3.56 | I 1.92 | K 2.58 | L 2.47 | M 3.13 | N 3.5 | P 3.95 | Q 3.1 | R 2.64 | S 3.41 | T 2.4 | V 2.65 | W 3.37 | Y 3.04
E6: A 2.72 | C 2.87 | D 3.06 | F 2.27 | G 3.48 | H 3.36 | I 2.44 | K 3.32 | L 2.58 | M 2.66 | N 3.98 | P 3.46 | Q 3.27 | R 3.46 | S 3.24 | T 3.15 | V 2.53 | W 2.67 | Y 2.31
H7: A 3.54 | C 3.33 | D 3.68 | E 3.1 | F 2.84 | G 4.29 | I 3.75 | K 3.44 | L 2.64 | M 2.84 | N 4.35 | P 4.2 | Q 2.75 | R 3.08 | S 3.71 | T 3.21 | V 3.18 | W 2.82 | Y 2.29
V8: A 4.13 | C 3.98 | D 4.42 | E 4.24 | F 3.34 | G 4.02 | H 4.04 | I 2.81 | K 4.26 | L 3.31 | M 3.66 | N 4.13 | P 4.21 | Q 3.86 | R 4.22 | S 3.88 | T 3.84 | W 3.39 | Y 3.99
T9: A 2.97 | C 2.6 | D 4.32 | E 3.84 | F 2.11 | G 3.14 | H 3.46 | I 2.62 | K 3.59 | L 2.53 | M 3.48 | N 3.75 | P 3.54 | Q 3.6 | R 3.1 | S 2.38 | V 2.75 | W 2.67 | Y 3.04
H10: A 2.17 | C 2.92 | D 3.39 | E 3.1 | F 1.92 | G 2.57 | I 1.95 | K 2.53 | L 2.33 | M 1.99 | N 2.58 | P 3.52 | Q 2.56 | R 2.19 | S 2.73 | T 2.32 | V 2.16 | W 2.31 | Y 1.92
W11: A 2.97 | C 2.48 | D 2.33 | E 1.57 | F 2.7 | G 2.69 | H 2.95 | I 3.01 | K 3.61 | L 2.85 | M 2.54 | N 2.26 | P 3.54 | Q 2.12 | R 3.29 | S 2.53 | T 2.49 | V 3.19 | Y 2.82
